Laboratory results taken from US12534534 (F STAR BETA, dated 2026).
Changes are numbered by the printed parent chain. Names and notes keep the numbering of the source.

T1: TNFRSF1A-Fc (human, UniProt P19438 30-211, limits assumed)
T1 construct: bought; also called TNFRSF1A (R&D Systems, 372-RI-050/CF); not shown: Fc part of the bought fusion
T1 sequence (looked up): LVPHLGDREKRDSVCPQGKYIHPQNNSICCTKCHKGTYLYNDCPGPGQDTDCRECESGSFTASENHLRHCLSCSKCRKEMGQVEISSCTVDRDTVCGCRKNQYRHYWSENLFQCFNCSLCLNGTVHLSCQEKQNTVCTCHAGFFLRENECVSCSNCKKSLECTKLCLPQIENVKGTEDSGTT

T2: cyno CD137 on DO11.10-cCD137 cells (cynomolgus, UniProt Q07011 24-255 (human entry))
T2 chain: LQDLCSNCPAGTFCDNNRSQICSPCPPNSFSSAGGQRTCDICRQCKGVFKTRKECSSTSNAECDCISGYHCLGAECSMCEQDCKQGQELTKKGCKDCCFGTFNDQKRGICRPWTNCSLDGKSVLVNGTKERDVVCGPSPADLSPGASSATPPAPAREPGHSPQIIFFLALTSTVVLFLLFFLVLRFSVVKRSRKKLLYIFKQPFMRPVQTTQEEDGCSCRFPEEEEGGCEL

B1: FS20-22-49AA/FS30-10-3 (bispecific antibody, human IgG1, kappa, L234A L235A, V domains shown)
VH: EVQLLESGGGLVQPGGSLRLSCAASGFTFSSYDMSWVRQAPGKGLEWVSDIDPTGSKTDYADSVKGRFTISRDNSKNTLYLQMNSLRAEDTAVYYCARDLNVYGFDYWGQGTLVTVSS
VL: EIVLTQSPGTLSLSPGERATLSCRASQSVSSSYLAWYQQKPGQAPRLLIYGASSRATGIPDRFSGSGSGTDFTLTISRLEPEDFAVYYCQQSYSYPVTFGQGTKVEIKR
notes: M97 (Kabat) to N against FS30-10; also called FS30-10-3 in mAb^2 format
B2: FS20-22-49AA/FS30-10-16 (bispecific antibody, human IgG1, kappa, L234A L235A, V domains shown)
VH: B1 VH with N101L
VL: B1 VL
notes: M97 (Kabat) to L against FS30-10; also called FS30-10-16 in mAb^2 format
B3: FS20-22-49AA/FS30-10-12 (bispecific antibody, human IgG1, kappa, L234A L235A, V domains shown)
VH: B1 VH with N101T
VL: B1 VL
notes: M97 (Kabat) to T against FS30-10; also called FS30-10-12 in mAb^2 format
B4: FS20-22-49AA/FS30-5-37 (bispecific antibody, human IgG1, kappa, L234A L235A, V domains shown)
VH: EVQLLESGGGLVQPGGSLRLNCAASGFTFSSYAMSWVRQAPGKGLEWVSAISGSGGSTYYADSVKGRFTISRDNSKNTLYLQMNSLRAEDTAVYYCARSYDKYWGSSIYSGLDYWGQGTLVTVSS
VL: EIVLTQSPGTLSLSPGERATLSCRASQSVSSSYLAWYQQKPGQAPRLLIYGASSRATGIPDRFSGSGSGTDFTLTISRLEPEDFAVYYCQQYYSYYPVTFGQGTKVEIKR
notes: M100D to I and M100H to L against FS30-5; also called FS30-5-37 in mAb^2 format
B5: FS20-22-49AA/FS30-35-14 (bispecific antibody, human IgG1, kappa, L234A L235A, V domains shown)
VH: EVQLLESGGGLVQPGGSLRLSCAASGFTFSAYNIHWVRQAPGKGLEWVSDISPYGGATNYADSVKGRFTISRDNSKNTLYLQMNSLRAEDTAVYYCARNLYELSAYSYGADYWGQGTLVTVSS
VL: B4 VL with S94Y, Y95S, Y96S, V98I
notes: M100F (Kabat) to A against FS30-35; also called FS30-35-14 in mAb^2 format

What follows are binders tested against T1, TNFRSF1A-Fc (assay: SPR, antigen immobilised on CM5 chip).

Binder | binding result
B1 | no binding (tested: 1 µM (protocol of Example 3.1))
B2 | no binding (tested: 1 µM (protocol of Example 3.1))
B3 | no binding (tested: 1 µM (protocol of Example 3.1))
B4 | no binding (tested: 1 µM (protocol of Example 3.1))
B5 | no binding (tested: 1 µM (protocol of Example 3.1))

Each binder was assayed against T3, hCD137-mFc-Avi (human, UniProt Q07011 24-186) (assay: cell-based, 100 nM hCD137-mFc-Avi with 200 nM antibody, competitor human CD137L on DO11.10 cells, GMFI normalised to G1/11D4 = 0 and G1/MOR7480.1 = 100; mean of n=2).
T3 construct: dimer; also called human CD137-mFc-Avi; human CD137-mFc
Procedure: The cells were washed once in PBS and 100 μl/well of secondary antibody (anti-mouse Fc-488 antibody, Jackson Immuno Research, 115-546-008) diluted 1:1000 in PBS containing 2% BSA was then added and incubated for 30 mins at 4° C. in the dark. The cells were washed once with PBS and resuspended in 100 μl of PBS containing DAPI (Biotium, 40043) at 1 μg/ml. The cells were analysed using a Canto II flow cytometer (BD Bioscience). Dead cells were excluded and the fluorescence in the FITC channel (488 nm/530/30) was measured. […] The data was analysed using a one-way ANOVA test and Tukey's multiple comparisons test using GraphPad Prism.

Binder | % CD137 ligand blocking activity [%]
B1 | 65
B2 | 76
B3 | 46
B4 | 105

These binders were tested against T4, human CD137 on DO11.10-hCD137 cells (human, UniProt Q07011 24-255) (assay: cell-based or functional assay).

Binder | EC50 (nM), mIL-2 release, DO11.10-hCD137 T cell assay, crosslinked (mean of n = 2) [nM] | Emax (mIL-2 pg/ml), DO11.10-hCD137 T cell assay, crosslinked [pg/mL]
B1 | 6.1 | 17000
B2 | 4.7 | 16300
B3 | 9.5 | 17200
B4 | 13.4 | 18100
B5 | 5.1 | 19800

These binders were tested against T3, hCD137-mFc-Avi (assay: SPR (Biacore 3000), against the positive control G1/MOR7480.1).
Procedure: Briefly, 25 µg/ml anti-human IgG (Fc) antibody (GE Healthcare, Human Antibody Capture Kit, BR100839) was coated on flow cells 1, 2, 3 and 4 of a Biacore sensor chip CM5 (GE Healthcare, BR100012) for 3 minutes at 5 µl/min, achieving a final response of approximately 4300 RU. The mAb² clones, diluted in HBS-EP buffer (GE Healthcare, BR100188) at 0.5 µg/ml, were injected individually on flows cell 2, 3 and 4 at 30 µl/min to achieve a response of approximately 80 RU. […] Regeneration was achieved by injecting 3 M magnesium chloride (GE Healthcare, Human Antibody Capture Kit, BR100839) for 30 seconds at a rate of 30 µl/min. […] These slightly less stringent conditions were used to assess whether this molecule could bind to cyno CD137-mFc. Subtracted data (flow cell 2-flow cell 1, flow cell 3-flow cell 1, or flow cell 4-flow cell 1) were analysed using BIAevaluation 3.2 Software (GE Healthcare) to identify binding using the model 1:1 binding with mass transfer, with refractive index (RI) constant 0.

Binder | fold higher binding affinity than G1/MOR7480.1 [fold]
B1 | ~3
B2 | ~3

What follows are binders tested against T3, hCD137-mFc-Avi (assay: ELISA, hCD137-mFc-Avi coated, 100 nM antibody, competitor CD137L-His; normalised to G1/11D4 = 0 and G1/MOR7480.1 = 100; mean of n=2).
Procedure: The following day, plates were washed with PBST (PBS+0.05% Tween20™) and blocked with PBS+1% BSA (Sigma, A3059-500G) for 1 hour at room temperature with agitation. After blocking, the plates were washed again with PBST. A 100 nM dilution of each test antibody was prepared in PBS+1% BSA and added to the CD137-coated plates and incubated for 1 hour at room temperature with agitation. […] The plates were then washed with PBST and then incubated with anti-his secondary antibody (R&D Systems, MAB050H) at a 1 in 1000 dilution in PBS for 1 hour at room temperature with agitation. The plates were then washed with PBST and incubated with TMB detection reagent (Thermo Fisher Scientific, 002023) until the positive control wells turned blue and then the reaction was stopped with the addition of 2N H_2SO_4. Plates were read at 450 nm using the plate reader with Gen5 Software, BioTek. Absorbance values of 630 nm were subtracted from those of 450 nm (Correction). The subtracted absorbance values were plotted vs the log concentration of antibody and the resulting curves were fitted using the log (inhibitor) vs response equation in GraphPad Prism.

Binder | % CD137 ligand blocking activity [%]
B1 | 49.4
B2 | 48.1
B3 | 53.8
B4 | 107
B5 | 6.6

Target: T4, human CD137 on DO11.10-hCD137 cells
Experiment: cell-based or functional assay
Remark: another data set of the same source

Binder | DO11.10-hCD137 T cell activation assay EC50 (nM), crosslinked [nM]
B1 | 4.8
B2 | 3.7
B3 | 4.5
B5 | 6.3

Target: T2, cyno CD137 on DO11.10-cCD137 cells
Experiment: cell-based or functional assay

Binder | EC50 (nM), mIL-2 release, DO11.10-cCD137 T cell assay, crosslinked (mean of n = 2) [nM] | Emax (mIL-2 pg/ml), DO11.10-cCD137 T cell assay, crosslinked [pg/mL]
B1 | 5 | 49400
B2 | 3.7 | 50100
B3 | 5.8 | 46900
B4 | 7.5 | 45700
B5 | 6.6 | 69700
